T1: ORC2+3 core complex (human, UniProt Q13416 1-577; Q9UBD5 1-711)
T1 construct: Untagged ORC2 and ORC3 co-expressed in Sf9 cells with a GST-tagged third subunit; also called ORC2+3 subcomplex; ORC2-3 complex
T1 sequence (looked up) 1: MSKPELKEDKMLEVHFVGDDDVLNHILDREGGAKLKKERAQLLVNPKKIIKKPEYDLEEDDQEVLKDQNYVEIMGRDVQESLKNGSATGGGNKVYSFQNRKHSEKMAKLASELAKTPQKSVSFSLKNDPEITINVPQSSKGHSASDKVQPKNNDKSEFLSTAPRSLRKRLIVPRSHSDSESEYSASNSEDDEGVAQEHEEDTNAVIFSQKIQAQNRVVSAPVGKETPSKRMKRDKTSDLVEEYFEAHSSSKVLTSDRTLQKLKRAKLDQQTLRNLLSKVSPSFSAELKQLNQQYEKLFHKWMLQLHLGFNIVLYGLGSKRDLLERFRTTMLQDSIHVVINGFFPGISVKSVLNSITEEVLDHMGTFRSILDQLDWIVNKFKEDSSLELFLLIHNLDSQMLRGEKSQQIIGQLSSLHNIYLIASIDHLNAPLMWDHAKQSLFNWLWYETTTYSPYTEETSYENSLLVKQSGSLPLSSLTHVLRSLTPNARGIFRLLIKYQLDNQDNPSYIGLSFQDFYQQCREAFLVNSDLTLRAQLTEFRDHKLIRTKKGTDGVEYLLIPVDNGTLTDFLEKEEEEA
T1 sequence (looked up) 2: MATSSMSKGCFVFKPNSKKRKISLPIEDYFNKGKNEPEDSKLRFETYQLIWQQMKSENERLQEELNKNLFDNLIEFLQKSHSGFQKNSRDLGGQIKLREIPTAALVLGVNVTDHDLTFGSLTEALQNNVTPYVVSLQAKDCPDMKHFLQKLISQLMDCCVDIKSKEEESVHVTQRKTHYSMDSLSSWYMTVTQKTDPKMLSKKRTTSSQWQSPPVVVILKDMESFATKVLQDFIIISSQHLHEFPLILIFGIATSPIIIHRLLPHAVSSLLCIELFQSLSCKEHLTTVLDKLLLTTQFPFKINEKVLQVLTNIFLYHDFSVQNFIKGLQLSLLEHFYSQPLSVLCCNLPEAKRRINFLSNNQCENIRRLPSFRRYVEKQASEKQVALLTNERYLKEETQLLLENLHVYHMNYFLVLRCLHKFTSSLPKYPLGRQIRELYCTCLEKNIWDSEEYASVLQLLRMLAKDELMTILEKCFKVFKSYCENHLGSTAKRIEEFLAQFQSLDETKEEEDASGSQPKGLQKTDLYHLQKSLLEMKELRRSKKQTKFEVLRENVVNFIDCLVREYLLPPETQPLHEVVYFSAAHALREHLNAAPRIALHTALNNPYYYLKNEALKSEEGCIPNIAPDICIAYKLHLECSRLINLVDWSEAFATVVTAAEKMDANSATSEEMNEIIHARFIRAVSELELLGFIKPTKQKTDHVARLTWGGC

T2: GSTORC2 (GST fused to full-length human ORC2) (human, UniProt Q13416 1-577)
T2 construct: domain: full-length; also called GSTO2; not shown: GST tag of pFB-GST (baculovirus) or pGEX-5X-3 (bacterial)
T2 sequence (looked up): T1 sequence (looked up) 1

B1: human ORC6, untagged (other, UniProt Q9Y5N6 1-252, looked up)
chain: MGSELIGRLAPRLGLAEPDMLRKAEEYLRLSRVKCVGLSARTTETSSAVMCLDLAASWMKCPLDRAYLIKLSGLNKETYQSCLKSFECLLGLNSNIGIRDLAVQFSCIEAVNMASKILKSYESSLPQTQQVDLDLSRPLFTSAALLSACKILKLKVDKNKMVATSGVKKAIFDRLCKQLEKIGQQVDREPGDVATPPRKRKKIVVEAPAKEMEKVEEMPHKPQKDEDLTQDYEEWKRKILENAASAQKATAE
B2: GSTORC4 (GST fused to human ORC4) (other, UniProt O43929 1-436, looked up)
chain: MSSRKSKSNSLIHTECLSQVQRILRERFCRQSPHSNLFGVQVQYKHLSELLKRTALHGESNSVLIIGPRGSGKTMLINHALKELMEIEEVSENVLQVHLNGLLQINDKIALKEITRQLNLENVVGDKVFGSFAENLSFLLEALKKGDRTSSCPVIFILDEFDLFAHHKNQTLLYNLFDISQSAQTPIAVIGLTCRLDILELLEKRVKSRFSHRQIHLMNSFGFPQYVKIFKEQLSLPAEFPDKVFAEKWNENVQYLSEDRSVQEVLQKHFNISKNLRSLHMLLMLALNRVTASHPFMTAVDLMEASQLCSMDSKANIVHGLSVLEICLIIAMKHLNDIYEEEPFNFQMVYNEFQKFVQRKAHSVYNFEKPVVMKAFEHLQQLELIKPMERTSGNSQREYQLMKLLLDNTQIMNALQKYPNCPTDVRQWATSSLSWL
notes: Baculovirus-expressed; not shown: GST tag of the pFB-GST vector
B3: ORC3N (ORC3N200), N-terminal 200 amino acids of human ORC3 (other)
chain: MATSSMSKGCFVFKPNSKKRKISLPIEDYFNKGKNEPEDSKLRFETYQLIWQQMKSENERLQEELNKNLFDNLIEFLQKSHSGFQKNSRDLGGQIKLREIPTAALVLGVNVTDHDLTFGSLTEALQNNVTPYVVSLQAKDCPDMKHFLQKLISQLMDCCVDIKSKEEESVHVTQRKTHYSMDSLSSWYMTVTQKTDPKML
notes: also called construct 3
B4: GSTORC5 (GST fused to human ORC5) (other, UniProt O43913 1-435, looked up)
chain: MPHLENVVLCRESQVSILQSLFGERHHFSFPSIFIYGHTASGKTYVTQTLLKTLELPHVFVNCVECFTLRLLLEQILNKLNHLSSSEDGCSTEITCETFNDFVRLFKQVTTAENLKDQTVYIVLDKAEYLRDMEANLLPGFLRLQELADRNVTVLFLSEIVWEKFRPNTGCFEPFVLYFPDYSIGNLQKILSHDHPPEYSADFYAAYINILLGVFYTVCRDLKELRHLAVLNFPKYCEPVVKGEASERDTRKLWRNIEPHLKKAMQTVYLREISSSQWEKLQKDDTDPGQLKGLSAHTHVELPYYSKFILIAAYLASYNPARTDKRFFLKHHGKIKKTNFLKKHEKTSNHLLGPKPFPLDRLLAILYSIVDSRVAPTANIFSQITSLVTLQLLTLVGHDDQLDGPKYKCTVSLDFIRAIARTVNFDIIKYLYDFL
notes: as for B2

The target in test [1] is T3, complex of GSTORC5, ORC2, ORC3 and ORC4 (human, UniProt O43913 1-435; Q13416 1-577; Q9UBD5 1-711; O43929 1-436).
T3 construct: Complex purified on glutathione beads from Sf9 cells; also called GSTORC5, 2, 3 and 4; ORC2, 3, 4 and 5 core complex; not shown: GST tag of the pFB-GST vector
Kind of test: GST pull-down on glutathione beads from Sf9 cells expressing human ORC1-6 with ORC5 GST tagged; immunoblot. Here is the method:
(§1) The cell suspension was homogenized in a Dounce homogenizer using a B-type pestle followed by centrifugation at 3000 rpm for 7 min. The pellet containing the nuclei was lysed in buffer H/0.15 (50 mM HEPES.KOH, pH 7.5; 150 mM KCl; 0.02% NP-40; 5 mM Magnesium acetate; 1 mM EDTA; 1 mM EGTA; 10% glycerol, 1 mM PMSF, 2 μg/ml pepstatin, 2 μg/ml leupeptin, 5 μg/ml aprotinin, 1 mM DTT). The resulting suspension was subjected to ammonium sulfate precipitation (starting with 10% followed by 30% and finally 50%). The pellet following 50% ammonium sulfate cut was resuspended in buffer H/0.0 (no salt) and then dialyzed overnight against buffer H/0.15. […] Proteins were eluted using reduced glutathione elution buffer (50 Mm Tris.Cl, pH 8.0; 20 mM reduced glutathione; 0.01% NP-40; 100 mM NaCl). Gel filtration of glutathione eluate using fast protein liquid chromatography Superose 12 (Amersham Pharmacia Biotech Inc, Piscataway, N.J.) column was performed as described previously (Dhar, S. K. & Dutta, A. J Biol Chem 275:34983-8, 2000).
(§2) To purify recombinant six protein human origin recognition complex, Sf9 insect cells were infected with baculoviruses expressing human ORC1-6 subunits.
(A western blot detects proteins with antibodies after separation by electrophoresis.)

In test [2] the target is T1, ORC2+3 core complex. Nature of the test: co-expression of GSTORC4, ORC2 and ORC3 in Sf9 cells, glutathione beads, immunoblot. As to the method:
as §1, with “Cells were harvested 48 hours post-infection. The cell pellet was washed once in cold phosphate buffered saline (PBS), and subsequently resuspended in hypotonic lysis buffer (10 mM Tris.Cl, pH 7.9; 10 mM KCl; 1.5 mM MgCl₂; 1 mM Phenylmethylsulfonyl Fluoride (PMSF); 2 μg/ml pepstatin; 2 μg/ml leupeptin; 5 μg/ml aprotinin; 1 mM DTT). The cell” for “The cell”

Test [3] deals with T2, GSTORC2 (GST fused to full-length human …). Kind of test: GST pull-down of 35S-labelled in vitro translated ORC3N on bacterially expressed GSTORC2. The source says: (§3) Pull-down assays on glutathione agarose beads were done as described in (Lin, Y. L., et al., J Biol Chem 271:17190-8, 1996).
Test [4] deals with B4. Kind of test: glutathione beads from Sf9 cells co-expressing GSTORC5, ORC2, ORC4 and ORC3N; western blot. As to the method: as §1
Test [5] deals with T4, GST (glutathione S transferase), control protein (UniProt P08515 1-218 = GST).
T4 construct: Negative control in the pull-downs; also called control GST
Kind of test: GST pull-down of 35S-labelled in vitro translated ORC3N (control of the GSTORC2C experiment).
Excerpt: as §3

In test [6] the target is T1, ORC2+3 core complex. Nature of the test: co-expression of GSTORC5, ORC2 and ORC3 in Sf9 cells, glutathione beads, immunoblot. As to the method: as §1, with “Cells were harvested 48 hours post-infection. The cell pellet was washed once in cold phosphate buffered saline (PBS), and subsequently resuspended in hypotonic lysis buffer (10 mM Tris.Cl, pH 7.9; 10 mM KCl; 1.5 mM MgCl₂; 1 mM Phenylmethylsulfonyl Fluoride (PMSF); 2 μg/ml pepstatin; 2 μg/ml leupeptin; 5 μg/ml aprotinin; 1 mM DTT). The cell” for “The cell”

Test [7] has as its target T5, ORC2, ORC3 and ORC4 co-expressed with GSTORC5 (human, UniProt Q13416 1-577; Q9UBD5 1-711; O43929 1-436).
T5 construct: The set of untagged subunits that come down with GSTORC5; written as one partner because the pairwise tests of GSTORC5 with each of them were negative; also called ORC2, 3 and 4
Kind of test: GST pull-down on glutathione beads from Sf9 cells expressing human ORC1-6 with ORC5 GST tagged; immunoblot. Here is the method:
as §1, §2

The record followed here is patent US20030105008A1 (BRIGHAM AND WOMEN S HOSPITAL, published 2003).

T4 sequence (P08515 whole entry): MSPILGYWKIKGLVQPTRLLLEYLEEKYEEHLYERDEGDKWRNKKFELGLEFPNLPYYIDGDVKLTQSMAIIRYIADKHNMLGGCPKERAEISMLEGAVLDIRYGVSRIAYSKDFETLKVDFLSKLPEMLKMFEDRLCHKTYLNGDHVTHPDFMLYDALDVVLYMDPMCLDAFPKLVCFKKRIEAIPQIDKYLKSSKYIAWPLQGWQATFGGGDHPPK

With B1, in test [1], the binding result is recorded as “no binding”.

As to B2, the binding result in the test with ORC2+3 core complex [2] was “no binding”.

Consider B3, for which the binding result is given as “binds” in test [3], “no binding” in test [4] and “no binding” in test [5].

For the molecule B4, the binding result (in the test with ORC2+3 core complex [6]; in test [7]) was “binds” each time.
